This is an account of results in US20200368208, “Protein Translation Inhibitors and Uses Thereof” (University of Baltimore, Maryland, published 2020).

For data set [1], the target named is T1, hnRNP A18 (CIRP), full length, GST fusion (UniProt Q14011 Q14011:1-172).
T1 sequence: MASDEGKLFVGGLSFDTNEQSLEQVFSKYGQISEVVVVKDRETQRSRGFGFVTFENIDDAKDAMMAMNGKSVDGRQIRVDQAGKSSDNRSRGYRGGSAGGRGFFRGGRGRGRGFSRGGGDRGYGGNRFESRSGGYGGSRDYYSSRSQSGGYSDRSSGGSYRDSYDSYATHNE
Briefly: FP; 25 C, 30 min; binding competed by small molecules (compound 1 IC50 6.4 uM; compounds 5, 2, 3, 4 IC50 2.9, 15, 13, 39 uM); no Kd given. The settings on record: tags: GST; label: 3' T-fluorescein (position 5 of thymine, 6-carbon spacer).

Data set [2] addresses T2, hnRNP A18 (CIRP), full length, His-tagged (UniProt Q14011 Q14011:1-172).
T2 sequence: T1 sequence
Briefly: EMSA; 1 ug protein in 20 ul; competed by compounds 1-6. Particulars: tags: His; label: 3' biotin. How it is done: RNA band shifts were performed according to the manufacturer recommendations (LightShift Chemiluminescent RNA EMSA kit, Thermo Scientific, Rockford, Ill.). Briefly recombinant His-hnRNP A18 or His-hnRNP A1 (1 μg) were incubated with biotinylated RNA (hnRNP A18 motif 1, IRE 28 or 51 nucleotides) in 20 μl and run on native polyacrylamide gels transfer to nylon probes and hybridize with streptavidin HRP antibody.
Background: Mobility shift assays separate free from complexed probe on a gel.

B1: hnRNP A18 motif 1 fluorescein (ssRNA)
RNA: GCAGAUCCAGGGUGGGAUUUUCUUGAGGAAGUUACAAAUAAGCUUGUUACA
For the molecule B1, the binding result in data set [1] is listed as “binds”.

B2: hnRNP A18 motif 1 biotin (ssRNA)
RNA: B1 RNA
With B2, the binding result in data set [2] is given as “binds”.
